Reference: article PMC7617797, “The phosphorylated trimeric SOSS1 complex and RNA polymerase II trigger liquid-liquid phase separation at double-strand breaks”

How the values were obtained:
hSSB1 Y115A = hSSB1 Y115A (Homo sapiens, UniProt Q9BQ15 1-211, Y115A); assay: EMSA; EMSA: 25 mM Tris-HCl pH 7.5, 1 mM DTT, 5 mM MgCl2, 100 mM NaCl, 20 min at 37 C; 10 nM substrate; protein 22-167 nM (RPA 5-40 nM); 7.5% native PAGE, 0.5x TBE, 4; settings: protein: recombinant
hSSB1 Y102A = hSSB1 Y102A (Homo sapiens, UniProt Q9BQ15 1-211, Y102A); assay: as above; settings: protein: recombinant
Sequence of hSSB1 Y102A (Q9BQ15 whole entry Y102A): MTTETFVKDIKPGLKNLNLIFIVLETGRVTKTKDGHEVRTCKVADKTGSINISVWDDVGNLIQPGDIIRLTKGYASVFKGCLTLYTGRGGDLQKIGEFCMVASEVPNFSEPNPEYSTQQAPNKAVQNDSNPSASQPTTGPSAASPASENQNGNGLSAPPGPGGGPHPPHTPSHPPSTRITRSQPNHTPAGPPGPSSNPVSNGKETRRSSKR

hSSB1 Y102A/Y115A = hSSB1 Y102A/Y115A (Homo sapiens, UniProt Q9BQ15 1-211, Y102A;Y115A); assay: as above; settings: protein: recombinant
Sequence of hSSB1 Y102A/Y115A (Q9BQ15 whole entry Y102A/Y115A): as the sequence (Q9BQ15 whole entry Y102A) above, with Y115A counted along it

hSSB1;INTS3;c9orf80 [1] = molecular target: T1, hSSB1;INTS3;c9orf80 (Homo sapiens;Homo sapiens?;Homo sapiens?, UniProt Q9BQ15;Q68E01;Q9NRY2 1-211;1-1043;1-104, ||); assay: competition EMSA; substrate pre-coated with RPA (10 or 30 nM); EMSA: 25 mM Tris-HCl pH 7.5, 1 mM DTT, 5 mM MgCl2, 100 mM NaCl, 20 min at 37 C; 10 nM substrate; protein 22-167 nM (RPA 5-40 nM); 7.5% native PAGE, 0.5x TBE, 4; settings: protein: recombinant;recombinant;recombinant; tags: His6 (2BT);His6-TEV (438B);His6-TEV (438B); copies: 1;1;1; label: 5' Cy3 on strand 1; 21-nt RNA paired to strand 1 in a 21-nt bubble; 20-bp flanking duplexes
T1 sequence (Q9BQ15 whole entry, chain 1 of 3): as the sequence (Q9BQ15 whole entry Y102A) above, with A102Y counted along it
T1 sequence (Q68E01 whole entry, chain 2 of 3): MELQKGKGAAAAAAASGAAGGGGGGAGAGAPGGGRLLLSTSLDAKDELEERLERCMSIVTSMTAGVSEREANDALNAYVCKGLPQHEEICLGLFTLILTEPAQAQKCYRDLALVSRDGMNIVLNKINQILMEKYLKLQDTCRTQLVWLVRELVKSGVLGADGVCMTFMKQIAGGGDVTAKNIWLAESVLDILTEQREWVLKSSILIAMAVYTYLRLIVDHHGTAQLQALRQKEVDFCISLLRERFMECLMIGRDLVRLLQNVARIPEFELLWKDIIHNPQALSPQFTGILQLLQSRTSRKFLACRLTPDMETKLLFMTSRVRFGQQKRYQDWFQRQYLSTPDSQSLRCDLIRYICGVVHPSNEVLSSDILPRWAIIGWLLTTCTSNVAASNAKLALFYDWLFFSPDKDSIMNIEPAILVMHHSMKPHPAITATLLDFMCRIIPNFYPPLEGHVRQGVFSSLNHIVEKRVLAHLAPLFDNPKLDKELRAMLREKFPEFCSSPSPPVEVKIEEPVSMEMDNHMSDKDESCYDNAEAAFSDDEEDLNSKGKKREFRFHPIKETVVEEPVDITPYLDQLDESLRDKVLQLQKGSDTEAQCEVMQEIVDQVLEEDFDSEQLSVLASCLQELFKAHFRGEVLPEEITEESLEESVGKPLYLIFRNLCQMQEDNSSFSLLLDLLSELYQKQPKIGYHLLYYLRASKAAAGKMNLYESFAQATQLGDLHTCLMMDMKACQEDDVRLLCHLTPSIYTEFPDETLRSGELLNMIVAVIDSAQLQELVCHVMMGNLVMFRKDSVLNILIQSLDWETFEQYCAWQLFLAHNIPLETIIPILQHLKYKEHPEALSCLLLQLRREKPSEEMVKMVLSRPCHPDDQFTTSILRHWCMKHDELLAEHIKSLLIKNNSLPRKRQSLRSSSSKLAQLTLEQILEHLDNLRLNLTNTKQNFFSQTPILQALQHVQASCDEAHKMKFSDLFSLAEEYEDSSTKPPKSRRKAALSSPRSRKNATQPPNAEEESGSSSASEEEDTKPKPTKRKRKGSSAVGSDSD
T1 sequence (Q9NRY2 whole entry, chain 3 of 3): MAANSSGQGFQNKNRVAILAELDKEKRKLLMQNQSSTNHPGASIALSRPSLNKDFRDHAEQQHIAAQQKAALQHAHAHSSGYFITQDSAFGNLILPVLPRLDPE

hSSB1;INTS3;c9orf80 [2] = molecular target: T1, hSSB1;INTS3;c9orf80; assay: EMSA; EMSA: 25 mM Tris-HCl pH 7.5, 1 mM DTT, 5 mM MgCl2, 100 mM NaCl, 20 min at 37 C; 10 nM substrate; protein 22-167 nM (RPA 5-40 nM); 7.5% native PAGE, 0.5x TBE, 4; settings: protein: recombinant;recombinant;recombinant; tags: His6 (2BT);His6-TEV (438B);His6-TEV (438B); copies: 1;1;1; label: 5' Cy3; single strand
[3] = label: 5' Cy3 on strand 1, 21-nt RNA paired to strand 1 in a 21-nt bubble, 20-bp flanking duplexes

Sequence of hSSB1 Y115A (Q9BQ15 whole entry Y115A): as the sequence (Q9BQ15 whole entry Y102A) above, with A102Y, Y115A counted along it

B1: 61-mer ssDNA (ssDNA)
DNA: GACGCTGCCGAATTCTACCAGTGCCTTGCTAGGACATCTTTGCCCACCTGCAGGTTCACCC
- binding result (hSSB1 Y115A; label: 5' Cy3, single strand): binds
- binding result (hSSB1 Y102A; label: 5' Cy3, single strand): binds
- binding result (hSSB1 Y102A/Y115A; label: 5' Cy3, single strand): binds

B2: R-loop (mixed)
DNA 1: B1 DNA
DNA 2: GGGTGAACCTGCAGGTGGGCGGCTGCTCATCGTAGGTTAGTTGGTAGAATTCGGCAGCGTC
RNA: AAAGAUGUCCUAGCAAGGCAC
- binding result (hSSB1 Y115A; [3]): binds
- binding result (hSSB1 Y102A; [3]): binds
- binding result (hSSB1 Y102A/Y115A; [3]): binds
- binding result (hSSB1;INTS3;c9orf80 [1]): binds

Binder: GTGCCTTGCTAGGACATCTTT (ssDNA) [21-mer ssDNA (pRMS630)]
- binding result (hSSB1;INTS3;c9orf80 [2]): no binding
